Reference: patent US20260258388A1 (REGENTS OF THE UNIVERSITY OF MICHIGAN, published 2026)

What was measured:
[1] = molecular target: Ly76 (Ter119 antigen) on mouse red blood cells (mouse); test: binding assay using mouse RBC ghosts
[2] = molecular target: Ly76 (Ter119 antigen) on mouse red blood cells (mouse); test: cell-based or functional assay
[3] = molecular target: Ly76 (Ter119 antigen) on mouse red blood cells (mouse); test: binding assay on mouse RBCs
[4] = molecular target: Ly76 (Ter119 antigen) on mouse red blood cells (mouse); test: 125I-labelled protein injected in mice; radioactivity in RBC pellet vs plasma 1 hour after injection
[5] = molecular target: T1, human FcγRIIA (human, UniProt P12318 34-317); test: flow cytometry, THP-1 cells
T1 construct: whole, on cells; also called hFcγRIIA; platelet FcγRIIA
T1 sequence (looked up): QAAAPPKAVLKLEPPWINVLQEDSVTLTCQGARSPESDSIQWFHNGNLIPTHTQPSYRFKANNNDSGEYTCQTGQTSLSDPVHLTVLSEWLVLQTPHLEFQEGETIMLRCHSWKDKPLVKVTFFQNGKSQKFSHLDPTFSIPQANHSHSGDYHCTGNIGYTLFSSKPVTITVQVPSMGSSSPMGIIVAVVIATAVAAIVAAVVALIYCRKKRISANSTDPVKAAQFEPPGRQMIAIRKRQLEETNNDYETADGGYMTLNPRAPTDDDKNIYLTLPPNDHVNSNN

[6] = molecular target: T1, human FcγRIIA; test: flow cytometry, human platelets
[7] = molecular target: T1, human FcγRIIA; test: flow cytometry, washed platelets of transgenic mice expressing human FcγRIIA
[8] = molecular target: T1, human FcγRIIA; test: flow cytometry, human platelets, His-tagged protein detected with Alexa 488 anti-His antibody

With Ter119 scFv the Kd [1] was 30 nM.

Work on Ter119 scFv-IdeS fusion protein yielded an inhibition of agglutination of mouse RBCs loaded with Ter119 mAb [2] of 1.25 nM, a Kd [3] of 25 nM and a Kd [1] of 26 nM. For the same molecule, the percent bound to RBCs in blood [4] was > 98%.

B1: scIV.3-LPETGG-FAM (scFv)
scFv: QVQLVQSGAEVKKPGASVKVSCKASGYTFTNYGMNWVRQAPGQRLEWMGWLNTYTGESWYPDDFKGRVTITRDTSASTAYMELSSLRSEDTAVYYCARGDYGYDDPLDYWGQGTLVTVSSGAGGSGGGGSGGGGSGGGGSDIVMTQSPLSLPVTPGEPASISCRSSKSLLHTNQNTYLHWFLQKPGQSPQLLIYRMSVLASGVPDRFSGSGSGTDFTLKISRVEAEDVGVYYCMQHLEYPLTFGQGTKLEIKR
modifications: FAM-containing peptide attached site-specifically to the C-terminal sortag (LPET) by sortase
notes: Single chain variable fragment of monoclonal antibody IV.3, C-terminally modified with a FAM peptide by sortase; also called scIV.3-FAM; FAM-conjugated scIV.3; not shown: short semi-rigid linker, sortag LPET and the FAM-containing peptide joined by sortase
With B1 the Kd [5] was 11 nM, the Kd [6] was 1 nM and the Kd [7] was 0.27 nM.

B2: scIV.3 (single-chain variable fragment of IV.3, scIV.3-LPETGG) (scFv)
scFv: QVQLVQSGAEVKKPGASVKVSCKASGYTFTNYGMNWVRQAPGQRLEWMGWLNTYTGESWYPDDFKGRVTITRDTSASTAYMELSSLRSEDTAVYYCARGDYGYDDPLDYWGQGTLVTVSSGAGGSGGGGSGGGGSGGGGSDIVMTQSPLSLPVTPGEPASISCRSSKSLLHTNQNTYLHWFLQKPGQSPQLLIYRMSVLASGVPDRFSGSGSGTDFTLKISRVEAEDVGVYYCMQHLEYPLTFGQGTKLEIKRGSSSGLPETGGGHHHHHH
notes: also called His-tagged scIV.3; IV.3 scFv
B2 gave a Kd [8] of 0.9 nM.

B3: scIV.3-IdeS (scFv)
chain: QVQLVQSGAEVKKPGASVKVSCKASGYTFTNYGMNWVRQAPGQRLEWMGWLNTYTGESWYPDDFKGRVTITRDTSASTAYMELSSLRSEDTAVYYCARGDYGYDDPLDYWGQGTLVTVSSGAGGSGGGGSGGGGSGGGGSDIVMTQSPLSLPVTPGEPASISCRSSKSLLHTNQNTYLHWFLQKPGQSPQLLIYRMSVLASGVPDRFSGSGSGTDFTLKISRVEAEDVGVYYCMQHLEYPLTFGQGTKLEIKRGSSSGLPETGGGSSDSFSANQEIRYSEVTPYHVTSVWTKGVTPPANFTQGEDVFHAPYVANQGWYDITKTFNGKDDLLCGAATAGNMLHWWFDQNKDQIKRYLEEHPEKQKINFNGEQMFDVKEAIDTKNHQLDSKLFEYFKEKAFPYLSTKHLGVFPDHVIDMFINGYRLSLTNHGPTPVKEGSKDPRGGIFDAVFTRGDQSKLLTSRHDFKEKNLKEISDLIKKELTEGKALGLSHTYANVRINHVINLWGADFDSNGNLKAIYVTDSDSNASIGMKKYFVGVNSAGKVAISAKEIKEDNIGAQVLGLFTLSTGQDSWNQTNHHHHHH
notes: also called IV.3-IdeS conjugate; His-tagged scIV.3-IdeS
Work on B3 yielded a Kd [8] of 1.3 nM.
